We go through 18 sequences from the DeepSol protein solubility set.

This data set is described as follows: soluble on expression in E. coli; label from the status in PepcDB or PDB records.
Regarding “GPHMLGILNKMFDPTKRTLNRYEKIANDIDAIRGDYENLSDDALKHKTIEFKERLEKGATTDDLLVEAFAVVREASRRVTGMFPFKVQLMGGVALHDGNIAEMKTGEGKTLTSTLPVYLNALTGKGVHVVTVNEYLASRDAEQMGKIFEFLGLTVGLNLNSMSKDEKREAYAADITYSTNNELGFDYLRDNMVLYKEQMVQRPLHFAVIDEVDSILIDEARTPLIISGQAAKSTKLYVQANAFVRTLKAEKDYTYDIKTKAVQLTEEGMTKAEKAFGIDNLFDVKHVALNHHINQALKAHVAMQKDVDYVVEDGQVVIVDSFTGRLMKGRRYSEGLHQAIEAKEGLEIQNESMTLATITFQNYFRMYEKLAGMTGTAKTEEEEFRNIYNMQVVTIPTNRPVVRDDRPDLIYRTMEGKFKAVAEDVAQRYMTGQPVLVGTVAVETSELISKLLKNKGIPHQVLNAKNHEREAQIIEEAGQKGAVTIATNMAGRGTDIKLGEGVKELGGLAVVGTERHESRRIDNQLRGRSGRQGDPGITQFYLSMEDELMRRFGAERTMAMLDRFGMDDSTPIQSKMVSRAVESSQKRVEGNNFDSRKQLLQYDDVLRQQREVIYKQRFEVIDSENLREIVENMIKSSLERAIAAYTPREELPEEWKLDGLVDLINTTYLDEGALEKSDIFGKEPDEMLELIMDRIITKYNEKEEQFGKEQMREFEKVIVLRAVDSKWMDHIDAMDQLRQGIHLRAYAQTNPLREYQMEGFAMFEHMIESIEDEVAKFVMKAEIENNLEREEVVQGQTTAHQPQEGDDNKKAKKAPVRKVVDIGRNAPCHCGSGKKYKNCCGRTE”, the “soluble on expression in E. coli” value is given as “soluble”.
Regarding “GPLGSEEEQFALALKMSEQEAREVNNQEEKEEELLRKAIAESLNS”, the “soluble on expression in E. coli” value is reported as “soluble”.
Consider GPLGSGTWDCDTCLVQNKPEAVKCVACETPKPG, for which the “soluble on expression in E. coli” value was “soluble”.
Consider “GPLGSLPEELVHAGWEKCWSRRENRPYYFNRFTNQSLWEMPVLGQHDVISDP”, for which the “soluble on expression in E. coli” value is listed as “soluble”.
Then “GPLHMKAVVPGPAEHPLQYNYTFWYSRRTPGRPTSSQSYEQNIKQIGTFASVEQFWRFYSHMVRPGDLTGHSDFHLFKEGIKPMWEDDANKNGGKWIIRLRKGLASRCWENLILAMLGEQFMVGEEICGAVVSVRFQEDIISIWNKTASDQATTARIRDTLRRVLNLPPNTIMEYKTHTDSIKMPGRLGPQRLLF”, with “soluble”; and “GPSRVVYLGSIPYDQTEEQILDLCSNVGPVINLKMMFDPQTGRSKGYAFIEFRDLESSASAVRNLNGYQLGSRFLKCGYSSNSDISGVSQQQQQQYN”, with “soluble”; and “GPVDMTERLKVMTIFGTRPEAIKMAPLVLELQKHPEKIESIVTVTAQHRQMLDQVLSIFGITPDFDLNIMKDRQTLIDITTRGLEGLDKVMKEAKPDIVLVHGDTTTTFIASLAAFYNQIPVGHVEAGLRTWDKYSPYPEEMNRQLTGVMADLHFSPTAKSATNLQKENKDESRIFITGNTAIDALKTTVKETYSHPVLEKLGNNRLVLMTAHRRENLGEPMRNMFRAIKRLVDKHEDVQVVYPVHMNPVVRETANDILGDYGRIHLIEPLDVIDFHNVAARSYLMLTDSGGVQEEAPSLGVPVLVLRDTTERPEGIEAGTLKLAGTDEETIFSLADELLSDKEAHDKMSKASNPYGDGRASERIVEAILKHFNK”, with “soluble”.
Then “GQLVESGGGSVQAGGSLRLSCAASGIDSSSYCMGWFRQRPGKEREGVARINGLGGVKTAYADSVKDRFTISRDNAENTVYLQMNSLKPEDTAIYYCAAKFSPGYCGGSWSNFGYWGQGTQVTVSSH”, with “soluble”; and “GQPMNVTLQDDTQTLQEVVVTALGMKRATKALGYAVTEIKSDELNSNVVNPVSALQGKVAGVEISAGDGGLFGSSKILIRGASTLGSNNQPIYVVDGVILDNAIKNGDADWAANDTDWGNELKNLNPDDFESVSVLKGAAATALYGSRGLNGAVVITTKSGKGKK”, with “not soluble”; and “GREEAPNAEADILSCRLPGVVMTTSPIITNNSINIFVGPGTDISSLAPEFTLTPGATIDPPSGTARDFHSPQQYTVTAADGFWKKKYTVSVIDTELATIYNFEDTLGGQKYYIFVEREGEKVVMEWASGNAGYAMTGVPKTADDYPTFQFANGKTGKCLSLVTRSTGFFGSIMGMPIAAGNLFIGSFDVGNAMSNPLKATKFGLPFRHIPTYLAGYYKYKAGDQFTEGGKPVSGKRDICDIYAIMYETSESVPTLDGTNAFTSPNLVSIARIDDAKETDEWTYFKLPFHMLSGKYIDKEKLTAGKYNVAIVFTSSLEGDHFNGAIGSTLLIDEVELIYRSED”, with “soluble”.
As for “GSADAEYDVVVLGGGPGGYSAAFAAADEGLKVAIVERYKTLGGVCLNVGCIPSKALLHNAAVIDEVRHLAANGIKYPEPELDIDMLRAYKDGVVSRLTGGLAGMAKSRKVDVIQGDGQFLDPHHLEVSLTAGDAYEQAAPTGEKKIVAFKNCIIAAGSRVTKLPFIPEDPRIIDSSGALALKEVPGKLLIIGGGIIGLEMGTVYSTLGSRLDVVEMMDGLMQGADRDLVKVWQKQNEYRFDNIMVNTKTVAVEPKEDGVYVTFEGANAPKEPQRYDAVLVAAGRAPNGKLISAEKAGVAVTDRGFIEVDKQMRTNVPHIYAIGDIVGQPMLAHKAVHEGHVAAENCAGHKAYFDARVIPGVAYTSPEVAWVGETELSAKASARKITKANFPWAASGRAIANGCDKPFTKLIFDAETGRIIGGGIVGPNGGDMIGEVCLAIEMGCDAADIGKTIHPHPTLGESIGMAAEVALGTCTDLPPQKK”, the “soluble on expression in E. coli” value is reported as “soluble”.
Then “GSADETLCQTKVLLDIFTGVRLYLPPSTPDFSRLRRYFVAFDGDLVQEFDMTSATHVLGSRDKNPAAQQVSPEWIWACIRKRRLVAPC”, with “soluble”; and “GSDSSLFETYNVELVRKDGQSLGIRIVGYVGTSHTGEASGIYVKSVIPGSAAYHNGHIQVNDKIVAVDGVNIQGFANHDVVEVLRNAGQVVHLTLVRRKTSSSTSPLEPPSDRGTV”, with “soluble”; and “GSEDLKKLEEEFDVRLGVYAIDTGADKEISYRENERFAYTSTFKPLAVGAVLQTKSDEELEETITYSEEDLVTYSPITEQHVDEGMTLVEIADAAIRYSDNTAGNLLLEAMGGPDELETILRDIGDETIEMDRYETELNEAKPGDIRDTSTAKAMATTLQQYVLEDVLDADRREVLTNMLINNTTGDALIRAGVPDGWTVGDKTGAGGYGTRNDIGIIWPEGDEEPIVIAIMSSRDEEDADYDDKLIEKATEIVLQELRN”, with “soluble”.
Take “GSFTMDDISPSELKTILHSKRANLYYLQHCRVLVNGGRVEYVTDEGRHSHYWNIPIANTTSLLLGTGTSITQAAMRELARAGVLVGFCGGGGTPLFSANEVDVEVSWLTPQSEYRPTEYLQRWVGFWFDEEKRLVAARHFQRARLERIRHSWLEDRVLRDAGFAVDATALAVAVEDSARALEQAPNHEHLLTEEARLSKRLFKLAAQATRYGEFVRAKRGSGGDPANRFLDHGNYLAYGLAATATWVLGIPHGLAVLHGKTRRGGLVFDVADLIKDSLILPQAFLSAMRGDEEQDFRQACLDNLSRAQALDFMIDTLKDVAQRSTVSA”: the “soluble on expression in E. coli” value is on record as “soluble”.
The entry for “GSGMKETAAAKFERQHMDSPDLGTTLLEQYCHRTTIGNFSGPYTYCNTTLDQIGTCWPQSAPGALVERPCPEYFNGIKYNTTRNAYRECLENGTWASRVNYSHCEPILDDFQRKYDLHY” is “soluble”.
Then “GSGSAMIEARQVSELSTRIISSVQMLSNAQNEQERKEAGRVLFEQLESLLTHIKELGGESFDSKLLDALESNVQNVINNLAELGVTVERKLWLAKEIDTRVEEMRLLSEELEQLTRTQVQNTSTIAVANVTHIYDLLEANKKDQVYQALDALVEVDLDLTERLHELHLLAFKMLNQIEEARTLTNVDRIQQIQTAFENNLKIMKRRVLAVEDPTRSKQMSQLLTELGKRQVVFTILLQQYENNEQSQQLMQKTLELFSELNSTVNKLVDDSNKTTT”, with “soluble”; and “GSHGLCKNLLQEYAQKMNYAIPLYQCQKVETLGRVTQFTCTVEIGGIKYTGAATRTKKDAEISAGRTALLAIQSDT”, with “soluble”.
